Series [1] concerns KPL4. The series can be described thus: KPL4-GFP orthotopic breast cancer model, response to chemotherapy. In kind it is in vivo, SCID/beiz mice. The following applies: following completion of chemotherapy regimen; tumors subsequently recurred. How it is done:
Several cancer models that show significant regression in response to chemotherapy followed by tumor relapse after the cessation of therapy (FIG. 1) were generated and used to study the cells that are responsible for tumor re-initiation. These cells are tumor reinitiating cells (TRICs). In order to generate the models, GFP labeled human tumor cells were transplanted subcutaneously, and when tumor size reached ˜200 mm^3, mice were treated with either vehicle or chemotherapy as shown in the respective models. GFP+ tumor cells were isolated from regressed or vehicle treated tumors by FACS-sorting after enzymatic digestion and dissociation. Tumors were collected a minimum of one week after the last dose of chemotherapy and before the resumption of tumor growth.
GFP-expressing sublines of the human breast cancer cell line KPL4 were transplanted orthotropically to the mammary fat pad of SCID/beiz mice. For the KPL4 model, chemotherapy consisted of Paclitaxel (20 mg/kg, i.v. every other day for 5 doses). FIG. 2C (data presented as mean tumor volume±SEM, n=12 mice/group).

Series [2] has as its system LSL-K-ras^G12D; p53^Fl/+ lung tumors. The series can be described thus: LSL-K-ras G12D; p53 Fl/+ lung tumor model, micro-CT tumor burden. The class given is in vivo, mice.
Series [3] deals with LSL-K-ras^G12D lung tumors. The experiment in a line: LSL-K-ras G12D x Z/EG mouse NSCLC model, FACS of GFP-positive tumor cells. The class given is in vivo. The following applies: one week after final dose of cisplatin, vs vehicle controls. How it is done:
In addition, the LSL-K-ras^G12D genetically engineered mouse model of NSCLC (Jackson et al., 2001) was crossed to the Z/EG Cre-reporter strain (Novak et al., 2000) and used in this study. Cisplatin (7 mg/kg i.p. every 7 days for 3 doses) was started 12 weeks after AdenoCre infection of the lungs (ie. tumor initiation). Lungs were collected 1 week after the last dose of chemotherapy and tumor cells were isolated by FACS after enzymatic digestion and dissociation. […] FIG. 2D (data presented as the average number of GFP positive cells per lung±SEM, n=6/group).

Series [4] concerns LSL-K-ras^G12D lung tumors. The note with it: LSL-K-ras^G12D mice (Oliver et al., 2010); cited from earlier work.
The subject of series [5] is NRG1/HER3 signaling. The series can be described thus: HER4-ECD added to serum starved LKPH1 and LKPH2 cells, Western blotting. The class given is cell-based, mouse. The following applies: HER4ECD 2 mg/ml, 48 hours. In general terms: In western blotting, separated proteins are transferred to a membrane and probed.
Series [6] has as its system LSL-K-ras^G12D; p53^Fl/Fl lung tumors. The experiment in a line: LSL-K-ras G12D; p53 Fl/Fl lung tumor model, micro-CT tumor burden. The class given is in vivo, mice.
Series [7] deals with H441 cells. The experiment in a line: Exogenous NRG1 stimulation of serum starved H441 cells, Western blotting. In kind it is cell-based, human. The note with it: 1 uM NRG1, ten minutes.
Series [8] deals with HER4. The series can be described thus: HER4 knockdown in Calu3-shHER4 cells, qPCR. In kind it is cell-based, human. The following applies: dox 2 ug/ml.
Series [9] relates to Calu3-shHer4 xenograft tumors. The series can be described thus: Calu3-shHER4 xenograft tumor growth. In kind it is in vivo, mice. The following applies: dox vs sucrose.
The test system of series [10] is HER3. The experiment in a line: HER3 knockdown in Calu3-shHER3 cells, qPCR and Western blot. In kind it is cell-based, human. (Quantitative PCR measures a nucleic acid by following its amplification.)
The subject of series [11] is Calu3-shHER3 xenograft tumors. The series can be described thus: Calu3-shHER3 xenograft tumor growth. The following applies: dox treatment; vs sucrose TDT=11 days. The class given is in vivo, mice.
Series [12] concerns H1299-shNRG1.2. The series can be described thus: H1299-shNRG1.2 in vivo study. The note with it: magnitude of growth inhibition smaller than with shNRG1.
In series [13] the test system is NRG1 mRNA. The series can be described thus: NRG1 mRNA levels in H1299 subline expressing shNRG1.2. In kind it is cell-based, human. The following applies: compared with shNRG1.

`CC(=O)O[C@H]1C(=O)[C@@]2(C)[C@H]([C@H](OC(=O)c3ccccc3)[C@]3(O)C[C@H](OC(=O)[C@H](O)[C@@H](NC(=O)c4ccccc4)c4ccccc4)C(C)=C1C3(C)C)[C@]1(OC(C)=O)CO[C@@H]1C[C@@H]2O` [Paclitaxel]: in series [1], the “tumor size vs vehicle-treated mice” value is recorded as “significantly smaller”.
`N.N.[Cl][Pt][Cl]` [cisplatin]: in series [2] (cisplatin+control IgG2A), the “average tumor burden at conclusion of study and overall tumor growth rate vs vehicle” value is reported as “not significantly different”. Further, the “number of GFP-positive tumor cells per lung” value in [3] was “significant decrease in tumor cell number”. In addition, the survival entry in series [4] is given as “does not result in prolonged survival”.
As to “HER4-ECD: fusion of the human HER4 extracellular domain to murine IgG2A Fc; ligand trap to sequester NRG1”, the “tumor growth (average tumor burden and tumor growth rate)” value in series [2] (cisplatin+HER4-ECD combination) is “significant inhibition of tumor growth”. Further, in series [5], the p-HER3 levels entry was “diminished”. The “effect on tumor growth” value in [6] (HER4-ECD treatment alone) is “no effect”. In addition, in series [6] (day 28, cisplatin+HER4-ECD vs cisplatin+vehicle and all other groups), the “tumor burden by micro-CT” value was “significant reduction in tumor burden”.

B1: NRG1: recombinant human NRG1 beta-1 extracellular domain (R&D systems), exogenous ligand (protein, UniProt Q02297 20-242, looked up)
extracellular domain: SGKKPESAAGSQSPALPPRLKEMKSQESAAGSKLVLRCETSSEYSSLRFKWFKNGNELNRKNKPQNIKIQKKPGKSELRINKASLADSGEYMCKVISKLGNDSASANITIVESNEIITGMPASTEGAYVSSESPIRISVSTEGANTSSSTSTSTTGTSHLVKCAEKEKTFCVNGGECFMVKDLSNPSRYLCKCQPGFTGARCTENVPMKVQNQEKAEELYQKR
modifications: extracellular domain
notes: recombinant human NRG1 beta-1 extracellular domain (R&D systems), exogenous ligand
With B1, in series [7], the “levels of p-Stat3 or p-Mek1/2” value is reported as “no detectable changes”; the “p-HER3 and p-AKT” value is “increase”.

B2: shHER4: dox-inducible shRNA to HER4 (SEQ ID NO: 5 and 6) (nucleic acid)
chain 1: GATCCCCGATCACAACTGCTGCTTAATTCAAGAGATTAAGCAGCAGTTGTGATCTTTTTTGGAAA
chain 2: AGCTTTTCCAAAAAAGATCACAACTGCTGCTTAATCTCTTGAATTAAGCAGCAGTTGTGATCGGG
For the molecule B2, the HER4 transcript levels result in [8] is on record as “decreased”. Besides, the “inhibition of tumor growth” value in [9] was “not a notable inhibition of tumor growth”.

B3: shHER3: dox-inducible shRNA to HER3 (SEQ ID NO: 7 and 8) (nucleic acid)
chain 1: GATCCCCAAGAGGATGTCAACGGTTATTCAAGAGATAACCGTTGACATCCTCTTTTTTTTGGAAA
chain 2: AGCTTTTCCAAAAAAAAGAGGATGTCAACGGTTATCTCTTGAATAACCGTTGACATCCTCTTGGG
In the case of B3, in [10] (dox 2 ug/ml, qPCR), the HER3 transcript levels result is on record as “decreased”. In addition, the “extent of p-AKT down-regulation” value in series [10] (in the presence of dox, compared with Calu3-shHER4) was “much greater”. Moreover, the “time to doubling (TDT)” value in series [11] turned out to be 19 days.

B4: shNRG1.2: a different doxycycline-inducible shRNA to NRG1 (SEQ ID NO: 3 and 4) (nucleic acid)
chain 1: GATCCCCGAGTATATGTGCAAAGTGATTCAAGAGATCACTTTGCACATATACTCTTTTTTGGAAA
chain 2: AGCTTTTCCAAAAAAGAGTATATGTGCAAAGTGATCTCTTGAATCACTTTGCACATATACTCGGG
B4: in series [12], the “response to chemotherapy upon NRG1 knockdown” value is “enhanced response to chemotherapy”. For the same molecule, the “reduction in NRG1 mRNA levels” value in series [13] is on record as “more modest reduction”.

The record behind these values is patent US9556249B2, “Neuregulin antagonists and use thereof in treating cancer” (Genentech, Inc., priority 2010, dated 2017).
